Experimental data from the supplement of paper PMC9112550, “Optimization of the antimicrobial peptide Bac7 by deep mutational scanning” (BMC Biology, 2022).

Test system: Escherichia coli TOP10
Assay: shrunken log2 fold change of peptide-encoding DNA abundance (4.5 h post-induction vs induction); higher = less antimicrobial activity (less host growth inhibition)
Details: time post-induction: 4.5 h; library: site-saturation at positions 5, 18, 19, 20
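Further: peptides expressed intracellularly from a pBAD plasmid library in pooled LB shake-flask culture, induced with 0.3% L-arabinose, DNA abundance read by NGS, three biological replicates, DESeq2 with apeglm shrinkage.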

Row | Sequence | shrunken log2 fold change
1 | RRIRMRPPRLPRPRPRPHGLPRP | 0.0212
2 | RRIRMRPPRLPRPRPRPHGRPRP | -0.0383
3 | RRIRMRPPRLPRPRPRPHHEPRP | -0.00212
4 | RRIRMRPPRLPRPRPRPHHHPRP | -0.412
5 | RRIRMRPPRLPRPRPRPHHQPRP | -0.526
6 | RRIRMRPPRLPRPRPRPHINPRP | -0.339
7 | RRIRMRPPRLPRPRPRPHKFPRP | 0.0123
8 | RRIRMRPPRLPRPRPRPHKIPRP | -0.188
9 | RRIRMRPPRLPRPRPRPHLSPRP | -0.0805
10 | RRIRMRPPRLPRPRPRPHMAPRP | 0.0168
11 | RRIRMRPPRLPRPRPRPHMPPRP | -0.206
12 | RRIRMRPPRLPRPRPRPHQCPRP | -0.0247
13 | RRIRMRPPRLPRPRPRPHSWPRP | 0.273
14 | RRIRMRPPRLPRPRPRPHTIPRP | 0.0593
15 | RRIRMRPPRLPRPRPRPHWIPRP | -0.0869
16 | RRIRMRPPRLPRPRPRPHYYPRP | -0.061
17 | RRIRMRPPRLPRPRPRPIACPRP | 0.106
18 | RRIRMRPPRLPRPRPRPIALPRP | 0.0271
19 | RRIRMRPPRLPRPRPRPIANPRP | 0.333
20 | RRIRMRPPRLPRPRPRPIAPPRP | 0.47
21 | RRIRMRPPRLPRPRPRPIARPRP | 0.184
22 | RRIRMRPPRLPRPRPRPIASPRP | 0.0465
23 | RRIRMRPPRLPRPRPRPICSPRP | 0.241
24 | RRIRMRPPRLPRPRPRPIDDPRP | -0.0846
25 | RRIRMRPPRLPRPRPRPIDLPRP | -0.00804

Row | Sequence | shrunken log2 fold change
26 | RRIRMRPPRLPRPRPRPIDYPRP | -0.0477
27 | RRIRMRPPRLPRPRPRPIEEPRP | 0.278
28 | RRIRMRPPRLPRPRPRPIEFPRP | 0.103
29 | RRIRMRPPRLPRPRPRPIEYPRP | 0.048
30 | RRIRMRPPRLPRPRPRPIFAPRP | 0.556
31 | RRIRMRPPRLPRPRPRPIGLPRP | -0.062
32 | RRIRMRPPRLPRPRPRPIGTPRP | 0.403
33 | RRIRMRPPRLPRPRPRPIHGPRP | 0.0579
34 | RRIRMRPPRLPRPRPRPIHHPRP | -0.724
35 | RRIRMRPPRLPRPRPRPIIIPRP | -0.166
36 | RRIRMRPPRLPRPRPRPIIWPRP | -0.0321
37 | RRIRMRPPRLPRPRPRPIKFPRP | -0.5
38 | RRIRMRPPRLPRPRPRPIKHPRP | -0.0825
39 | RRIRMRPPRLPRPRPRPIKSPRP | -0.0237
40 | RRIRMRPPRLPRPRPRPILYPRP | -0.0871
41 | RRIRMRPPRLPRPRPRPIMCPRP | -0.19
42 | RRIRMRPPRLPRPRPRPIMEPRP | -0.00133
43 | RRIRMRPPRLPRPRPRPIMFPRP | -0.103
44 | RRIRMRPPRLPRPRPRPIMKPRP | -0.24
45 | RRIRMRPPRLPRPRPRPIQAPRP | 0.295
46 | RRIRMRPPRLPRPRPRPIQNPRP | -0.157
47 | RRIRMRPPRLPRPRPRPIQSPRP | 0.00351
48 | RRIRMRPPRLPRPRPRPISCPRP | -0.0229
49 | RRIRMRPPRLPRPRPRPISPPRP | 0.0263
50 | RRIRMRPPRLPRPRPRPITMPRP | 0.0833

Row | Sequence | shrunken log2 fold change
51 | RRIRMRPPRLPRPRPRPITSPRP | 0.0639
52 | RRIRMRPPRLPRPRPRPIYWPRP | -0.0918
53 | RRIRMRPPRLPRPRPRPKCNPRP | 0.159
54 | RRIRMRPPRLPRPRPRPKDDPRP | 2.12
55 | RRIRMRPPRLPRPRPRPKDFPRP | -0.025
56 | RRIRMRPPRLPRPRPRPKDRPRP | 1.87
57 | RRIRMRPPRLPRPRPRPKFAPRP | 0.51
58 | RRIRMRPPRLPRPRPRPKGGPRP | 0.115
59 | RRIRMRPPRLPRPRPRPKGWPRP | 1.75
60 | RRIRMRPPRLPRPRPRPKHMPRP | 0.171
61 | RRIRMRPPRLPRPRPRPKHQPRP | 0.634
62 | RRIRMRPPRLPRPRPRPKHVPRP | 0.0503
63 | RRIRMRPPRLPRPRPRPKILPRP | 0.289
64 | RRIRMRPPRLPRPRPRPKKIPRP | 0.599
65 | RRIRMRPPRLPRPRPRPKKYPRP | 1.26
66 | RRIRMRPPRLPRPRPRPKLWPRP | 1.41
67 | RRIRMRPPRLPRPRPRPKMSPRP | 0.123
68 | RRIRMRPPRLPRPRPRPKMVPRP | 2.27
69 | RRIRMRPPRLPRPRPRPKNDPRP | 1.05
70 | RRIRMRPPRLPRPRPRPKQGPRP | -0.000896
71 | RRIRMRPPRLPRPRPRPKRSPRP | 2.25
72 | RRIRMRPPRLPRPRPRPKSNPRP | 0.815
73 | RRIRMRPPRLPRPRPRPKSVPRP | 0.0926
74 | RRIRMRPPRLPRPRPRPKSWPRP | 1.11
75 | RRIRMRPPRLPRPRPRPKTKPRP | 0.557

Row | Sequence | shrunken log2 fold change
76 | RRIRMRPPRLPRPRPRPKWSPRP | 0.894
77 | RRIRMRPPRLPRPRPRPKYDPRP | 0.114
78 | RRIRMRPPRLPRPRPRPKYNPRP | -0.446
79 | RRIRMRPPRLPRPRPRPKYYPRP | -0.0662
80 | RRIRMRPPRLPRPRPRPLADPRP | 3.11
81 | RRIRMRPPRLPRPRPRPLAGPRP | 0.468
82 | RRIRMRPPRLPRPRPRPLATPRP | 2.2
83 | RRIRMRPPRLPRPRPRPLAYPRP | -0.093
84 | RRIRMRPPRLPRPRPRPLCLPRP | -0.0538
85 | RRIRMRPPRLPRPRPRPLCNPRP | 0.0857
86 | RRIRMRPPRLPRPRPRPLCVPRP | 0.361
87 | RRIRMRPPRLPRPRPRPLDAPRP | 1.74
88 | RRIRMRPPRLPRPRPRPLEAPRP | 2.46
89 | RRIRMRPPRLPRPRPRPLEWPRP | 0.31
90 | RRIRMRPPRLPRPRPRPLHLPRP | -0.254
91 | RRIRMRPPRLPRPRPRPLIFPRP | -0.139
92 | RRIRMRPPRLPRPRPRPLIRPRP | -0.373
93 | RRIRMRPPRLPRPRPRPLKQPRP | 0.513
94 | RRIRMRPPRLPRPRPRPLMQPRP | 0.29
95 | RRIRMRPPRLPRPRPRPLMRPRP | 1.16
96 | RRIRMRPPRLPRPRPRPLNLPRP | -0.0841
97 | RRIRMRPPRLPRPRPRPLNSPRP | -0.0401
98 | RRIRMRPPRLPRPRPRPLPDPRP | 2.49
99 | RRIRMRPPRLPRPRPRPLQKPRP | 1.02
100 | RRIRMRPPRLPRPRPRPLQYPRP | -0.106

Row | Sequence | shrunken log2 fold change
101 | RRIRMRPPRLPRPRPRPLRMPRP | 1.88
102 | RRIRMRPPRLPRPRPRPLRTPRP | 3.45
103 | RRIRMRPPRLPRPRPRPLSTPRP | 0.0164
104 | RRIRMRPPRLPRPRPRPLTQPRP | 0.175
105 | RRIRMRPPRLPRPRPRPLVNPRP | 0.0639
106 | RRIRMRPPRLPRPRPRPLVTPRP | -0.107
107 | RRIRMRPPRLPRPRPRPLYFPRP | -0.302
108 | RRIRMRPPRLPRPRPRPLYSPRP | -1.32
109 | RRIRMRPPRLPRPRPRPMAIPRP | 0.227
110 | RRIRMRPPRLPRPRPRPMCQPRP | 0.00866
111 | RRIRMRPPRLPRPRPRPMDDPRP | 0.15
112 | RRIRMRPPRLPRPRPRPMDLPRP | -0.0207
113 | RRIRMRPPRLPRPRPRPMESPRP | -0.00987
114 | RRIRMRPPRLPRPRPRPMFHPRP | -0.244
115 | RRIRMRPPRLPRPRPRPMFSPRP | -0.125
116 | RRIRMRPPRLPRPRPRPMFTPRP | 0.0379
117 | RRIRMRPPRLPRPRPRPMGNPRP | 0.451
118 | RRIRMRPPRLPRPRPRPMHKPRP | 0.413
119 | RRIRMRPPRLPRPRPRPMHNPRP | 0.0989
120 | RRIRMRPPRLPRPRPRPMKDPRP | 0.251
121 | RRIRMRPPRLPRPRPRPMLDPRP | 0.722
122 | RRIRMRPPRLPRPRPRPMLEPRP | 0.0346
123 | RRIRMRPPRLPRPRPRPMMEPRP | 0.00973
124 | RRIRMRPPRLPRPRPRPMNPPRP | 0.12
125 | RRIRMRPPRLPRPRPRPMPWPRP | 0.169

Row | Sequence | shrunken log2 fold change
126 | RRIRMRPPRLPRPRPRPMSAPRP | 0.333
127 | RRIRMRPPRLPRPRPRPMSQPRP | 0.0528
128 | RRIRMRPPRLPRPRPRPMTNPRP | 0.165
129 | RRIRMRPPRLPRPRPRPMVCPRP | 0.204
130 | RRIRMRPPRLPRPRPRPMVFPRP | 0.0369
131 | RRIRMRPPRLPRPRPRPMVLPRP | -0.0251
132 | RRIRMRPPRLPRPRPRPMVPPRP | -0.0114
133 | RRIRMRPPRLPRPRPRPMWHPRP | 0.208
134 | RRIRMRPPRLPRPRPRPMWYPRP | -0.288
135 | RRIRMRPPRLPRPRPRPNCHPRP | 0.0305
136 | RRIRMRPPRLPRPRPRPNDAPRP | 0.317
137 | RRIRMRPPRLPRPRPRPNDLPRP | 0.0853
138 | RRIRMRPPRLPRPRPRPNDNPRP | 0.504
139 | RRIRMRPPRLPRPRPRPNEKPRP | 0.0356
140 | RRIRMRPPRLPRPRPRPNELPRP | 0.0804
141 | RRIRMRPPRLPRPRPRPNFAPRP | 0.318
142 | RRIRMRPPRLPRPRPRPNHPPRP | -0.0733
143 | RRIRMRPPRLPRPRPRPNHSPRP | -0.38
144 | RRIRMRPPRLPRPRPRPNIQPRP | -0.112
145 | RRIRMRPPRLPRPRPRPNKEPRP | 0.127
146 | RRIRMRPPRLPRPRPRPNMDPRP | 0.0442
147 | RRIRMRPPRLPRPRPRPNMFPRP | 0.0213
148 | RRIRMRPPRLPRPRPRPNMWPRP | 0.0353
149 | RRIRMRPPRLPRPRPRPNNLPRP | -0.259
150 | RRIRMRPPRLPRPRPRPNNVPRP | -0.0591
